# Reference: the DeepSol protein solubility set
# Assay: soluble on expression in E. coli; label from the status in PepcDB or PDB records
row,Sequence,soluble on expression in E. coli
1,MGSDKIHHHHHHMSISIYAFYNNKGGVGKTTLCSNAATLYAEKNPKTQVLVIDMCPQANISQFLLGGGKKGYQINQRLQSSATRKNIVGFIDWLLKGNSNFRKPNTSYQVPVYRYNPNISENLYLIAGDSFLESLSLALNYAVINPANIKAWSEYMTAIRRLCEYEYNSETYKDMVVFIDCNPSFSMYTQMALVSSDKIVVPMMADFSSLEGIKSLFMLLFGKYPSAALKQYADGIITFNNQVEHFQLKLPLIYEFVFNNYTIKDGVATAFDSIRTELIDFCYEQFNKFPSLFAPCQHTPTSSKEWENYYFSGIKDFHTSGKVSSSLGIPMSMLPKESKYIMPDGSVVRLPISNYSQALEEIELFVDKIH,not soluble
2,MNELDGIKQFTTVVADSGDIESIRHYHPQDATTNPSLLLKAAGLSQYEHLIDDAIAWGKKNGKTQEQQVVAACDKLAVNFGAEILKIVPGRVSTEVDARLSFDKEKSIEKARHLVDLYQQQGVEKSRILIKLASTWEGIRAAEELEKEGINCNLTLLFSFAQARACAEAGVFLISPFVGRIYDWYQARKPMDPYVVEEDPGVKSVRNIYDYYKQHHYETIVMGASFRRTEQILALTGCDRLTIAPNLLKELQEKVSPVVRKLIPPSQTFPRPAPMSEAEFRWEHNQDAMAVEKLSEGIRLFAVDQRKLEDLLAAKL,soluble
3,MGHHHHHHENLYFQSHLYFQSHERLSEKKIKNLLTSKQQRQQYEIKQRSMLRHLAELRRHSRFRRLCTKPASSSMPASTSSVDRRTTRRSTSQTSLSPSNSSGYGSVFGCEEHDVDKIPSLNGFAKLKRRRSSCVGAPTPNSKRSKNNMGVIAKRPPKGEYVVERIECVEMD,not soluble
4,MYSFPNSFRFGWSQAGFQSEMGTPGSEDPNTDWYKWVHDPENMAAGLVSGDLPENGPGYWGNYKTFHDNAQKMGLKIARLNVEWSRIFPNPLPRPQNFDESKQDVTEVEINENELKRLDEYANKDALNHYREIFKDLKSRGLYFILNMYHWPLPLWLHDPIRVRRGDFTGPSGWLSTRTVYEFARFSAYIAWKFDDLVDEYSTMNEPNVVGGLGYVGVKSGFPPGYLSFELSRRAMYNIIQAHARAYDGIKSVSKKPVGIIYANSSFQPLTDKDMEAVEMAENDNRWWFFDAIIRGEITRGNEKIVRDDLKGRLDWIGVNYYTRTVVKRTEKGYVSLGGYGHGCERNSVSLAGLPTSDFGWEFFPEGLYDVLTKYWNRYHLYMYVTENGIADDADYQRPYYLVSHVYQVHRAINSGADVRGYLHWSLADNYEWASGFSMRFGLLKVDYNTKRLYWRPSALVYREIATNGAITDEIEHLNSVPPVKPLRH,soluble
5,MDIGTQLKFLRNRRGWTMQEVADRIGKNDSTYSGYETNKRKPNAEVLVQLADIFDTTTDFILGRTENPNGLNFNVKDFLDQGRLHSDGVEITDEQAEIANVLLRQLLQRKQQ,not soluble
6,MSEKLQVVTLLGSLRKGSFNGMVARTLPKIAPASMEVNALPSIADIPLYDADVQQEEGFPATVEALAEQIRQADGVVIVTPEYNYSVPGGLKNAIDWLSRLPDQPLAGKPVLIQTSSMGVIGGARCQYHLRQILVFLDAMVMNKPEFMGGVIQNKVDPQTGEVIDQGTLDHLTGQLTAFGEFIQRVKI,not soluble
7,DELLALASIYDGDEFRKAESVQGGETRIYLDLPQNFKIFVSGNSNECLQNSGFEYTICFLPPLVLNFELPPDYPSSSPPSFTLSGKWLSPTQLSALCKHLDNLWEEHRGSVVLFAWMQFLKEETLAYLRIRLLTKPERKLSWLLPPLSNN,not soluble
8,MAHHHHHHMEVFNFGKYNGKTFEEVFEKHKSYVTWVKSLESPSGSLLDFKNYVLQKEGKKNSSNMANNNHYNNEKNSNNNYSNNMYENNVRSPNIYNEQYTNNNKMKENYDRNANMNNNEICTNNNRINENNVKSPHYYNNEKNINNYSHECNRSKIAYKHNYSENRNSYNNFEKSSVDTNYTNEEKKKFHNMNSSEYRNYEEKVMSDINNAYNQPEEKKEFDIIVAFEIFSDDSFKIVQKDNNNKKFVSFRNFISKDLFKIISELNPTLKKINNYTCITFEAEKYEYVLNNLKEKCTILGGVHTIPNFLLKCFKNYTKFSEPQRISEITANILTNTMCSYTKQHYDKLDHLLGEKLSVELRNFQREGVFFGLKKNGRVLIGDEMGLGKTLQALALMAFYKDDWPFIVVCPSSIRFQWKDQALRWLSHLIREEHICVVKNGKTDIPSNTKMIIISYELITKNDKYQDKYKSIICDESHYLKNSLSKRTKVITPIIKNAKRCVLLSGTPALNKPSELYEQISSIMPNFFNYHEFCDRYCFKDKNLYTKKIEYVGCKHTEELHLFLTNTIMIRRLKKDVLKELPDKLRSKIPVEIPQKELSEILNYYKKLESKKNINFHDIDNIHLSNWSNSKSEDGDDENLSISHLFKITGYAKVKAIKEYISYLIDADIKFLLFCHHKLVMDEVETFLKEQKCSYIRVDGLTPMEKREIYIKNFQNDDNVKIALLSITACGMGLNLTAANTVVFGELFWVPGQIIQAEDRAHRIGTAHDVVNIHYLIAQNTIDEIVWKIINRKWNTLTTALNGIEDSLNVKEVNKFDKFMVDLTNDTNKSYPTSLVTTPKVRRKSSEHGTFHNSSPKKKNRDIRDFFTANKCNESVEKSWNNNINKRSYHDSPMNDSPNTTLKFLSKKYKTEIN,not soluble
9,MSLTKSGLAHAAGVSTSVIDGLVKQGVFETVFLPAPPVVAEPDPDYVEPRLEGPQKQAASEIIEDVRKGGFHVSLIDGVTGSGKTEVYFEAVAETLRQGKQVLILLPEIALTAAFLERFQDRFGAKPAEWHSDLSPRMREKVWRQAVTGEIKVVAGARSALFLPFDNLGLIIVDEEHDPAYKQEDRVFYNARDMAVVRARIAEFPVVLVSATPSVESQVNGSSGRYNTIHLHTRFGDAAMPDLHLVDMRRHPPERGGFLSPVLLRGIGKTIEKGEQSLLFLNRRGYAPLTLCRVCGHRFQCPQCSSWLVEHRFRNQLQCHQCGHNEPTPDHCPECGTFDHLVACGPGVERIAEEVEKHFPEARTIVLSSDLMGVKRLRLELEAIVKGEADIVIGTQLVAKGHNFPLMTLVGIVDADLGLANGDPRAAERTFQLLSQVTGRAGRTGLKSHGLLQTYQPQHPVMQAIVSGDASAFYEREIVEREKAVLPPFGRLASIIVSADTRAEAETHARGLRAAAPQVTGIMLLGPAEAPLALIRGRHRFRLLVHGRRNSDMQSFLRTLLASGPKERGSVHVQLDIDPQSFLEGHHHHHH,not soluble
10,MSLMPDKKGYIIDIDGVIGKSVTPIPEGVEGVKKLKELGKKIIFVSNNSTRSRRILLERLRSFGLEVGEDEILVATYATARFIAREKPNAKVFTTGEEGLIEELRLAGLEIVDYDEAEYLVVGSNRKINFELMTKALRACLRGIRYIATNPDRIFPAEDGPIPGTGMIIGALYWMTGREPDVVVGKPSEVIMREALDILGLDAKDVAVVGDQIDVDVAAGKAIGAETVLVLTGVTTRENLDQMIERHGLKPDYVFNSLKDMVEALEGEGHHHHHH,soluble
11,MGSDKIHHHHHHMFEHRFKDLHHTYRAIREVESEHHNIANIIKYVHKNNRVRQPSVGSHIRLRKKWEVEKSTLHARLSWDLERMQVWQLEHLSKLVDFAYNYVPFYHALYHEAGFRTGDIVTWSDFEKLPIVDKKMLVDNRSALCASIGFAPDNHHVARTSGSSGINFTIVQDDTSVDTRVVLNLRQTEMMVGHALSPDDWRYGIYLASERFTSLAGGYPVITVGQDCPAVDVFEHIQKIKPKILYAFPSYLKRLQVCAGDLTEWGVECICTNSEPSTQEERQVFARHFGVPVLDEYSSEEFSLIATECRYGRYHIVEDNLKAEVCNIDPEGWGTLVGTSFANTYMPFIRYSQGDIVKLDARQILCECGTHFRYLDTFHGRADQFLESKNNGKIPPDKLMGLYDSTLILETSGVKEFQIVQTHLDKIEIRIVLMDKEGAYNYALMSNFVSGIKQLFSGDPLTVSVHVLESIPAAKSYKRRLIVNMINS,not soluble
12,MDNPSKEIDLLLQSSYDMTILTKQGEYNVDSMLSRAHHVASRISSMYKYEKLLQDMQDLTVNGNRRKLILNDLQRENKQIMALQDENRQLRETTQEYLATMRNILDSHAEIEGSIEMGQMNSDIDDADIDRIIFEMANTDQEARLKKKALEMELMMDDLEKMRKEEYQELQLAVQRNKNYKELFKLACFSNQSANSILNSAMKIISEGDGFDDDEAQENEDLNETIIHKKQ,not soluble
13,VTGPGSPPLAWTELERLVAAGDVDTVIVAFTDMQGRLAGKRISGRHFVDDIATRGVECCSYLLAVDVDLNTVPGYAMASWDTGYGDMVMTPDLSTLRLIPWLPGTALVIADLVWADGSEVAVSPRSILRRQLDRLKARGLVADVATELEFIVFDQPYRQAWASGYRGLTPASDYNIDYAILASSRMEPLLRDIRLGMAGAGLRFEAVKGECNMGQQEIGFRYDEALVTCDNHAIYKNGAKEIADQHGKSLTFMAKYDEREGNSCHIHVSLRGTDGSAVFADSNGPHGMSSMFRSFVAGQLATLREFTLCYAPTINSYKRFADSSFAPTALAWGLDNRTCALRVVGHGQNIRVECRVPGGDVNQYLAVAALIAGGLYGIERGLQLPEPCVGNAYQGADVERLPVTLADAAVLFEDSALVREAFGEDVVAHYLNNARVELAAFNAAVTDWERIRGFERL,not soluble
14,MELKDDDFEKISELGAGNGGVVFKVSHKPSGLVMARKLIHLEIKPAIRNQIIRELQVLHECNSPYIVGFYGAFYSDGEISICMEHMDGGSLDQVLKKAGRIPEQILGKVSIAVIKGLTYLREKHKIMHRDVKPSNILVNSRGEIKLCDFGVSGQLIDSMANSFVGTRSYMSPERLQGTHYSVQSDIWSMGLSLVEMAVGRYPIPPPDAKELELMFGCQVEGDAAETPPRPRTPGRPLSSYGMDSRPPMAIFELLDYIVNEPPPKLPSGVFSLEFQDFVNKCLIKNPAERADLKQLMVHAFIKRSDAEEVDFAGWLCSTIGLNQPSTPTHAAGVLEHHHHHH,soluble
15,MEILASRMLLRPADYQRSLSFYRDQIGLAIAREYGAGTVFFAGQSLLELAGYGEPDHSRGPFPGALWLQVRDLEATQTELVSRGVSIAREPRREPWGLHEMHVTDPDGITLIFVEVPEGHPLRTDTRA,soluble
16,MSESAFSNRIVQSLLDTDFYKLTMMQAVLHNYPNVDVEWEFRCRNGEDLRPYLGEIQHQIELLCELSLSPEHLVFLERITFMKPDFLRFLGLFRFNTRYVKTSIENDELCIRLHGPWLHVILFEVPLLAIVSEVRNRHRYPDTLLSQARDRLYDKFEWLTVNATPDELAELKVADFGTRRRFSYRVQEEVLNVLKLDFPGQLVGTSNVHLARQLDLKPLGTMAHEWIMAHQQLGPRLIDSQIAALDCWVREYRGLLGIALTDCITTDAFLNDFDLYFAKLFDGLRHDSGDPVKWAEKCISHYQKLGIDPMSKTLVFSDGLNLPKALDIFRALRGRINVSFGIGTNLTADIPGIAPMNMVLKMTACAGQAVAKISDESGKTQCKDPNFVAYLRHVFKVPDLPSPAKPALEHHHHHH,not soluble
17,MKWTGEDVALYERERDYIDTALLPLLPVAFGQGAKRLASGGELVGLIAAEVERQLKGRLFLMPSFVYFADEPRALLTERLADWTNRLRREGMKHLFYVTCDRAWQEGEEADRVWFVPVVPLESMGESYKHELVREQAAELLRFLIGRWAQE,not soluble
18,MSLKSAKELLFLALGGSGEIGMNVNLYCCDGKWLMVDLGMTFADPYYPGIDLVFADLEFIEERLDDLVGIVLTHAHEDHIGAVPYFAQDLGVPLYATPFTAKLVHEKLLEAGIEKEVELNVIDHLDPFQLGPFGLRYIPLAHSIAEGNALLIDTPHGRIFHTGDWKLDDEPRIGTPATEEELTAIGDEGVLALVCDSTNVFNPNPSGSEGAVRAGLLEAVAAQKGRRVVVTTFASNVARLQTLGEVAEATGRRVCVAGRSLDRIIRVAQSCGYLKNFPETVHMDDAMDLPRGELLVLATGGQGEPRAALARIAADQHPVKLEKGDAVLFSTRQIPGNELAIGRVQNALVEKGVRIVTDRQSMIHVSGHPGRPELMALYEWLRPEILVPVHGEIRHMAEQAQLGLDEGIPKAIVQKNGDLIRLAPNGPKKLSEEGHHHHHH,soluble
